Laboratory results as given in the supplement of paper PMC9732359.
± gives the uncertainty stated by the source.

Test: protein stability index of a GFP-peptide fusion (yeast GPS) (PSI 1-4); higher = more stable; sorted into four equal gates, so the index is relative within each strain
In short: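 Plasmids isolated from each sorting gate were PCR-amplified and Illumina-sequenced, and barcodes assigned the reads to strains. The gates, four of equal size, were set by GFP/Cherry fluorescence ratio on mid-log cultures in leucine-free medium. These cultures were yeast carrying a pooled library of tiled 17-residue yeast protein peptides fused downstream of GFP on a plasmid that also expresses Cherry. The protein stability index is the sum of every gate's read frequency times its gate number.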

Sequence	protein stability index (doa10∆)	protein stability index (pdr5∆)	protein stability index (san1∆)	protein stability index (ubr1∆)
CVVLGCERRSTLKLQDT [PRE6]	1.78 ± 0.074	1.66 ± 0.073	1.91 ± 0.13	1.28 ± 0.062
DKKEMTIYNNIREGQNQ [SIR3]	3.21 ± 0.056	3.37 ± 0.07	3.02 ± 0.041	3.27 ± 0.034
RVPIRSEYKVAFPHLYN [PRP8]	2.54 ± 0.069	2.27 ± 0.062	2.34 ± 0.083	2.08 ± 0.041
LEYYAMLSKTKVYYFQG [RPL30]	2.4 ± 0.096	3.08 ± 0.1	2.09 ± 0.079	2.89 ± 0.13
ITGNKIMRILKSNGLAP [RPS13]	3.01 ± 0.14	3.32 ± 0.18	2.53 ± 0.16	2.91 ± 0.057
NEKLECISLGSTKLSRP [ITC1]	2.25 ± 0.064	2.64 ± 0.052	2.44 ± 0.047	2.47 ± 0.057
ERYSDKYLKKRKIGISI [RPC31]	1.61 ± 0.11	2.39 ± 0.23		2.44 ± 0.21
LQIVNQLPANMVHLYSI [RPC17]	1.85 ± 0.043	1.9 ± 0.045	1.67 ± 0.068	1.79 ± 0.039
NGLIISWSNGKITSPIR [RRP42]	3.12 ± 0.19	2.98 ± 0.14	3.2 ± 0.082	3.39 ± 0.12
PKSTLDNWRREFLKWTP [ISW2]		3.15 ± 0.15		2.76 ± 0.09
NPEPNKKNIQKAKSNQT [IRR1]	2.25 ± 0.062	2.43 ± 0.062	2.56 ± 0.13	2.56 ± 0.051
EEIKQSARNYDKFKLNE [SMC1]	3.25 ± 0.066	3.24 ± 0.073	3.16 ± 0.076	3.31 ± 0.046
LSKFFFFIFVFNFVLLG [COB]	1.42 ± 0.13	1.19 ± 0.12	1.09 ± 0.25	1.22 ± 0.15
QHPFPLAHSQHRCAIRS [SSN2]	1.76 ± 0.05	1.42 ± 0.042	1.51 ± 0.091	1.27 ± 0.034
LSQPVSASKHEYSDNFP [SIR4]	2.24 ± 0.084	2.34 ± 0.046	2.82 ± 0.071	2.89 ± 0.046
MNNETSGKETASAPLCS [DLS1]	3.01 ± 0.067	3.21 ± 0.06	3.18 ± 0.055	3.12 ± 0.063
NLTAGIIVAGYDDKNKG [PRE3]	2 ± 0.071	2.75 ± 0.096	2.53 ± 0.12	2.16 ± 0.077
NAGTEKEKESKKDSKPA [YLR335W/NUP2]	3.31 ± 0.084	3.15 ± 0.074	3.54 ± 0.056	3.42 ± 0.05
PKCHSRENVFFQSQQRR [RPB9]	3.14 ± 0.088	2.65 ± 0.081	2.22 ± 0.089	2.65 ± 0.054
NLNRAFNGDQVIVELLP [DIS3]	3.17 ± 0.11	2.92 ± 0.18		3.45 ± 0.15

Sequence	protein stability index (doa10∆)	protein stability index (pdr5∆)	protein stability index (san1∆)	protein stability index (ubr1∆)
TEDGWIYHGNHDVGELF [PRE2]	2.05 ± 0.057	1.84 ± 0.049	2 ± 0.074	2.33 ± 0.043
SIKSKVVDHHVENELLQ [RRP42]	3.38 ± 0.13	3.24 ± 0.2	2.82 ± 0.17	
KAKIIPGNGKHASENIS [SIR4]	2.61 ± 0.11	3.04 ± 0.13	2.67 ± 0.13	2.81 ± 0.12
FKNTRETAQAINGWELT [RPL17A]	1.35 ± 0.031	1.58 ± 0.04	2.06 ± 0.062	1.4 ± 0.033
VEDGNILVFQVSMKANK [RPL25]	2.58 ± 0.043	2.46 ± 0.047	2.5 ± 0.047	2.69 ± 0.037
FSWGRPADSTYGAYNTQ [PRE4]	2.75 ± 0.081	2.68 ± 0.064	2.94 ± 0.059	3.04 ± 0.047
SKKNRPTLQVGDLVYAR [RRP40]	2.36 ± 0.1	2.48 ± 0.09	1.87 ± 0.12	2.46 ± 0.043
ETVFNYRLMIKRLNFSF [GRR1]	1.84 ± 0.099	1.3 ± 0.068	1.27 ± 0.12	1.31 ± 0.074
TSRTIVRNVKGPVREND [RPS28A]	3.4 ± 0.11	3.16 ± 0.1	3.59 ± 0.11	3.27 ± 0.086
RNAEFKVSKNSTSFKNP [YMR153W/NUP53]	2.79 ± 0.093	2.13 ± 0.062	2.14 ± 0.1	2.46 ± 0.076
EKKLMQDNKQLYQIWIV [YDL116W/NUP84]	2.06 ± 0.075	1.83 ± 0.078	2.72 ± 0.15	1.44 ± 0.072
LVTKILPLKKNEIIGDR [YCG1]	2.88 ± 0.22	2.9 ± 0.18	2.6 ± 0.24	2.83 ± 0.27
FPLCVHLVSNELEQLSS [RPL10]	2.7 ± 0.079	2.71 ± 0.065	2.52 ± 0.089	2.44 ± 0.049
TISSLFVQLCEMGYLIQ [RPC82]	1.85 ± 0.061	1.69 ± 0.078	1.61 ± 0.16	2.39 ± 0.081
QQDQPEQSEQPEQHQDK [RPN10]	3.04 ± 0.059	3.14 ± 0.054	2.83 ± 0.048	3.13 ± 0.058
LQLSKTPLSIKIMVAEW [SRB8]	2.31 ± 0.17	2.84 ± 0.072	2.69 ± 0.13	3 ± 0.12
SVSGSPRPSYSSRPNVN [YMR129W/POM152]	2.8 ± 0.091	2.72 ± 0.085	2.45 ± 0.066	2.77 ± 0.081
SEEEEDEEENGSSDEDL [SSN2]	3.48 ± 0.26	3.74 ± 0.24	3.63 ± 0.12	3.32 ± 0.17
NKITNQGVTCLHLAVGK [NAS6]	1.4 ± 0.2	1.83 ± 0.057		2.01 ± 0.075
